From the supplement of paper PMC7125110
± gives the standard error. For some assays here: Variants at the floor of the assay were thinned out.

B1: glmS ribozyme (parent)
chain: AUAAAAGCGCCAGAACUACAGAAAUGUAGUUGACGAGGAGGAGGUUUAUCGAAUUUUCGGCGGAUGCCUCCAAA

Columns and labels:
Settings in all cases: with glucosamine-6-phosphate
glucosamine-6-phosphate [1] = variants of: B1; assay: kcat; higher = faster cleavage; RNA array
Method in brief: (§1)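 Weighted Michaelis–Menten fits across concentrations supplied kcat and KM, based on kobs from one- or two-exponential decay fits to normalised per-tile medians. The data came from barcoded ribozyme variants transcribed in situ by E. coli RNA polymerase on sequenced MiSeq chips and tracked at 37 °C by a hybridised Cy3 probe. Glucosamine-6-phosphate (40 μM to 10 mM) in HEPES/KCl/Mg(OAc)2 buffer was flowed in.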

glucosamine-6-phosphate [2] = variants of: B1; assay: self-cleavage kobs at 40 uM GlcN6P; higher = faster cleavage; RNA array
Method in brief: as §1

glucosamine-6-phosphate [3] = variants of: B1; assay: self-cleavage kobs at 160 uM GlcN6P; higher = faster cleavage; RNA array
Method in brief: as §1

glucosamine-6-phosphate [4] = variants of: B1; assay: self-cleavage kobs at 640 uM GlcN6P; higher = faster cleavage; RNA array
Method in brief: as §1

glucosamine-6-phosphate [5] = variants of: B1; assay: self-cleavage kobs at 2500 uM GlcN6P; higher = faster cleavage; RNA array
Method in brief: as §1

glucosamine-6-phosphate [6] = variants of: B1; assay: self-cleavage kobs at 10000 uM GlcN6P; higher = faster cleavage; RNA array
Method in brief: as §1

glucosamine-6-phosphate [7] = variants of: B1; assay: KM; higher = weaker cofactor use; RNA array
Method in brief: as §1

Variant | kcat (glucosamine-6-phosphate [1]) [s⁻¹] | self-cleavage kobs at 40 uM GlcN6P (glucosamine-6-phosphate [2]) [s⁻¹] | self-cleavage kobs at 160 uM GlcN6P (glucosamine-6-phosphate [3]) [s⁻¹] | self-cleavage kobs at 640 uM GlcN6P (glucosamine-6-phosphate [4]) [s⁻¹] | self-cleavage kobs at 2500 uM GlcN6P (glucosamine-6-phosphate [5]) [s⁻¹] | self-cleavage kobs at 10000 uM GlcN6P (glucosamine-6-phosphate [6]) [s⁻¹] | KM (glucosamine-6-phosphate [7]) [µM]
U56G G66A | 0.0089 ± 0.0034 | 0.00021 ± 3.4e-05 | 0.00049 ± 0.00011 | 0.00136 ± 0.00037 | 0.00405 ± 0.00078 | 0.00875 ± 0.0018 | –
U56G G66U | 0.000858 ± 0.00012 | 3.12e-05 ± 8.7e-06 | 6.25e-05 ± 7.4e-06 | 0.000237 ± 2.4e-05 | 0.000576 ± 5.7e-05 | 0.000682 ± 6.4e-05 | 1780 ± 400
U54C C58U | 4.86e-05 ± 8.6e-06 | – | – | – | 4.48e-05 ± 1.5e-05 | 4.34e-05 ± 9.3e-06 | –
U57A G59A | 1.13e-05 ± 3e-06 | – | – | < 1e-05 | – | – | –
C61G C67U | 2.12e-05 ± 5.2e-06 | – | – | – | – | – | –
C61G C67A | 2.67e-05 ± 6.5e-06 | – | – | 3.33e-05 ± 1.4e-05 | – | – | –
U55C A64C | 1.63e-05 ± 1.9e-06 | – | < 1e-05 | – | – | – | –
G59U A64G | 6.46e-05 ± 1.1e-05 | < 1e-05 | – | – | 7.94e-05 ± 2.1e-05 | 5.92e-05 ± 9.3e-06 | –
U55C C68U | 3.04e-05 ± 1.7e-06 | – | – | – | – | 2.9e-05 ± 9.1e-06 | –
U56C C71A | 4.36e-05 ± 8.2e-06 | – | – | – | 5.14e-05 ± 1.2e-05 | 3.76e-05 ± 9e-06 | –
C58A U65A | 1.58e-05 ± 1.9e-06 | – | – | – | – | – | –
C58A U65C | 6.66e-05 ± 7.6e-06 | – | – | – | – | 4.42e-05 ± 2.2e-05 | 5030 ± 1300
U54G C61G | 1.78e-05 ± 5.8e-06 | < 1e-05 | – | – | – | – | –
U54G C61U | 2.79e-05 ± 5.8e-06 | – | – | – | 3.11e-05 ± 1.3e-05 | 2.39e-05 ± 1e-05 | –
G59U C71G | 1.13e-05 ± 1.7e-07 | < 1e-05 | < 1e-05 | – | – | – | 817 ± 71
U56G A64C | 7.21e-05 ± 4.9e-06 | – | < 1e-05 | 2.44e-05 ± 1.1e-05 | 3.92e-05 ± 1.5e-05 | 6.35e-05 ± 8.6e-06 | 1500 ± 420
U55G G66U | 0.00299 ± 0.00092 | 4.47e-05 ± 1.7e-05 | 8.99e-05 ± 1.6e-05 | 0.00054 ± 0.0001 | 0.00126 ± 0.00021 | 0.00195 ± 0.00034 | 4240 ± 1800
U55A C70A | 0.00013 ± 1.3e-05 | 2.79e-05 ± 1.1e-05 | 8.57e-05 ± 2e-05 | 0.00011 ± 2.1e-05 | 0.000155 ± 2.2e-05 | 0.000114 ± 1.4e-05 | 116 ± 52
C61A C67G | 2.3e-05 ± 5e-06 | – | – | 2.63e-05 ± 1.3e-05 | – | – | –
C61A C67A | 6.65e-05 ± 1.4e-05 | – | 5.31e-05 ± 1.5e-05 | 5.15e-05 ± 1.8e-05 | 7.72e-05 ± 1.8e-05 | – | –

Variant | kcat (glucosamine-6-phosphate [1]) [s⁻¹] | self-cleavage kobs at 40 uM GlcN6P (glucosamine-6-phosphate [2]) [s⁻¹] | self-cleavage kobs at 160 uM GlcN6P (glucosamine-6-phosphate [3]) [s⁻¹] | self-cleavage kobs at 640 uM GlcN6P (glucosamine-6-phosphate [4]) [s⁻¹] | self-cleavage kobs at 2500 uM GlcN6P (glucosamine-6-phosphate [5]) [s⁻¹] | self-cleavage kobs at 10000 uM GlcN6P (glucosamine-6-phosphate [6]) [s⁻¹] | KM (glucosamine-6-phosphate [7]) [µM]
U57C C70A | 1.97e-05 ± 8.4e-06 | – | – | – | – | – | –
U57C C70G | 1.91e-05 ± 3.1e-06 | – | – | – | – | – | –
U54G C58G | 0.000237 ± 2.6e-05 | – | – | – | 9.35e-05 ± 1.7e-05 | 0.000164 ± 2e-05 | 4280 ± 1000
U57G C61G C70U | 2.66e-05 ± 9e-06 | – | – | 3.58e-05 ± 1.7e-05 | – | – | –
U56G C70U | 0.00109 ± 0.00036 | 0.000308 ± 4.6e-05 | 0.000437 ± 7.8e-05 | 0.000908 ± 0.00022 | 0.000943 ± 0.0003 | 0.00182 ± 0.00036 | –
C58G C71A | 3.56e-05 ± 9.8e-06 | – | 4.45e-05 ± 1e-05 | – | 4.27e-05 ± 7.5e-06 | 1.89e-05 ± 9.2e-06 | –
C58G C71G | 2.97e-05 ± 5.4e-06 | – | – | 3.12e-05 ± 1.3e-05 | 3.56e-05 ± 1.5e-05 | – | –
U55C U56C | 9.63e-05 ± 1.9e-05 | – | – | 4.92e-05 ± 2e-05 | 5.28e-05 ± 1e-05 | 8.84e-05 ± 1.5e-05 | –
G59U C67G | 1.65e-05 ± 6.4e-06 | – | – | – | – | – | –
G59U C67A | 1.11e-05 ± 3.2e-06 | < 1e-05 | – | – | – | – | –
G60U C67A | < 1e-05 | < 1e-05 | < 1e-05 | – | < 1e-05 | – | –
C58U C70U | 0.000128 ± 1.9e-05 | – | – | – | 4.75e-05 ± 5.9e-06 | 8.61e-05 ± 8.8e-06 | 4650 ± 1400
U54C C71G | 0.00083 ± 0.00027 | – | 0.000132 ± 5.7e-05 | 0.000424 ± 0.00013 | 0.000351 ± 0.00011 | 0.00091 ± 0.00016 | –
G59U C68U | 1.5e-05 ± 6.2e-06 | < 1e-05 | – | – | 2.67e-05 ± 1.3e-05 | – | –
U56A C67G | 0.00221 ± 0.00081 | 6.73e-05 ± 6.8e-06 | 0.000246 ± 2.7e-05 | 0.000684 ± 0.00015 | 0.000905 ± 0.00024 | 0.00313 ± 0.00047 | 1310 ± 590
U56G U69A | 0.00018 ± 3.2e-05 | 4.08e-05 ± 1.8e-05 | – | 0.000102 ± 2.7e-05 | 0.000186 ± 3.1e-05 | 0.000176 ± 3.7e-05 | –
U56G U69G | 4.9e-05 ± 9e-06 | – | – | 8.25e-05 ± 1.5e-05 | 4.98e-05 ± 1.3e-05 | 4.12e-05 ± 7.4e-06 | –
U54C C70G | 0.000186 ± 3.5e-05 | 5.08e-05 ± 1.5e-05 | 0.000109 ± 3.8e-05 | 0.000175 ± 2.3e-05 | 0.000139 ± 2.6e-05 | 0.000325 ± 6.2e-05 | –
U54C C70U | 0.00794 ± 0.0014 | 0.000628 ± 8e-05 | 0.00162 ± 0.00035 | 0.00435 ± 0.0008 | – | 0.00879 ± 0.0016 | 507 ± 130
